T1: ec73-CTD12;ec100-CTD12 (Encephalitozoon …, UniProt Q8SUE4;M1JIZ1 452-567;525-639, |)
T1 sequence 1: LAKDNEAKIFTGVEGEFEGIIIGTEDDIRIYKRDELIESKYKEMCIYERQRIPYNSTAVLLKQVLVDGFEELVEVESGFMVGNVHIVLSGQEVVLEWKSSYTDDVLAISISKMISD
T1 sequence 2: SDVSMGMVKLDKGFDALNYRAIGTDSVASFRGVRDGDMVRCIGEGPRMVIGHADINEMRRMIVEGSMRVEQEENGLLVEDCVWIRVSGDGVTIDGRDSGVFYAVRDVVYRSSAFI

B1: dsRNA-Cy3 (dsRNA)
RNA 1: AGGGUCUCCAUUUUGAAGCAUGC
RNA 2: GCAUGCUUCAAAAUGGAGACCCU
B2: dsDNA-Cy3 (dsDNA)
DNA 1: AGGGTCTCCATTTTGAAGCATGC
DNA 2: GCATGCTTCAAAATGGAGACCCT

Molecular target: T1, ec73-CTD12;ec100-CTD12
Experiment: EMSA; 50 uM protein, 500 nM nucleic acid; NMR also negative (NMR ligands not specified); EMSA: 20 mM Tris pH 7.5, 150 mM potassium acetate, 1 mM EDTA, 10% glycerol; 30 min incubation; 10% Tris-glycine gel (running buffer 27 mM Tris, 192 mM glycine)
Details: protein: recombinant;recombinant, copies: 1;1
[1] = label: 3' Cy3 on forward strand, blunt

Binder | binding result [1] | binding result (label: 3' Cy3, single strand)
B1 | no binding | –
AGGGUCUCCAUUUUGAAGCAUGC (ssRNA) [ssRNA-Cy3] | – | no binding
AGGGTCTCCATTTTGAAGCATGC (ssDNA) [ssDNA-Cy3] | – | no binding
B2 | no binding | –

From paper PMC10688271, “Molecular details of the CPSF73-CPSF100 C-terminal heterodimer and interaction with Symplekin”
